System: MS2 coat protein
Experiment: apparent KD of MS2 coat protein; designed switch direction (-1 OFF switch, 1 ON switch): -1; higher = weaker reporter binding
How it was run: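 Three titration conditions were used: no input, 200 uM small-molecule ligand, and an oligonucleotide input. In each, SNAP-549-labelled MS2 coat protein was raised from 0.7 or 1.5 nM, doubling, to 3 µM over designed RNA switches transcribed on Illumina chips by stalled E. coli RNA polymerase. Curve fits of normalised cluster fluorescence gave values whose per-design median over clusters is the apparent KD.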

[1] = Eterna round: R95, input ligand: FMN 200 uM
[2] = Eterna round: R95, input ligand: microRNA oligo, concentration not stated
[3] = Eterna round: R95, input ligand: none
[4] = input ligand: microRNA oligo, concentration not stated

With “AAUUUGUGAGGAUAUCCAAUAUAUGACAUGAGGAUCACCCAUGUUUCCACUCGUACCUCCGGAGAAGGCACUGCAA [Ex5 #38] (Eterna round: R97, puzzle: Exclusion 5)” the “apparent KD of MS2 coat protein” value (input ligand: FMN 200 uM) was 21.4 nM and the “apparent KD of MS2 coat protein” value (input ligand: none) was 23.6 nM.
“ACAAGCUCUUUGCAUCUUAGUUUUGUUGCUUCGUAUGUAACAUGAGGAUCACCCAUGUAAGACUGAUGUCGUCUUUU [JR_SV3TOV2_Sub087] (puzzle: Sensor v3, turn-off variant 2)” was tested, and the “apparent KD of MS2 coat protein” value [1] was 43.8 nM, the “apparent KD of MS2 coat protein” value [2] was 30 nM and the “apparent KD of MS2 coat protein” value [3] was 48.2 nM.
With “ACAAGCUUAAAAAUCCUAAACAUGAGGAUCACCCAUGUUCGUCUUAUAAAAAUAAAAAUAAAAAACAAAAAAUAAAA [Sensor V2: 71] (Eterna round: R96, puzzle: Sensor v2, turn-off variant)” the “apparent KD of MS2 coat protein” value (input ligand: FMN 200 uM) was 39 nM, the “apparent KD of MS2 coat protein” value [4] was 228 nM and the “apparent KD of MS2 coat protein” value (input ligand: none) was 39.3 nM.
In the case of “ACAAGCUUUUAGAUUUUCAACAUGAGGAUCACCCAUGUUCGUCUUAUGCUCGGGCUUGGGCGGUGUCCGGGUUUGGG [JL TOV1 3.78 sellena mod] (Eterna round: R97, puzzle: Sensor, turn-off variant 1)”, the “apparent KD of MS2 coat protein” value (input ligand: FMN 200 uM) is reported as 37.1 nM and the “apparent KD of MS2 coat protein” value (input ligand: none) is reported as 39.2 nM.
“ACAAGCUUUUUGUUCGUCUUAUACACUCCUAAGAGGACAACAUGAGGAUCACCCAUGUAACAAAGACGAACUCAUGU [Sesor Array 10 - Jieux - Sensor v3, turn-off variant 2] (puzzle: Sensor v3, turn-off variant 2)” was tested, and the “apparent KD of MS2 coat protein” value [1] was 14.3 nM, the “apparent KD of MS2 coat protein” value [2] was 96.3 nM and the “apparent KD of MS2 coat protein” value [3] was 11.4 nM.
For “ACACGGCGAGGAUAUACAUGAGGAUCACCCAUGUGUCGGCCGGUACGGUAGCACUAGUGUAGAAGGCGCAUUGG [EX3 #38] (Eterna round: R97, puzzle: Exclusion 3)”, the “apparent KD of MS2 coat protein” value (input ligand: FMN 200 uM) was 28.1 nM and the “apparent KD of MS2 coat protein” value (input ligand: none) was 31.1 nM.
In the case of “ACACUGCGAGGAUAUACAUGAGGAUCACCCAUGUAUCGGUAGUCAAGGUUAAUUUAAGGUAGAAGGCGCGUAUU [JR_Ex3_Sub007] (Eterna round: R97, puzzle: Exclusion 3)”, the “apparent KD of MS2 coat protein” value (input ligand: FMN 200 uM) is reported as 26.4 nM and the “apparent KD of MS2 coat protein” value (input ligand: none) is reported as 24 nM.
With “ACAGUUCUGCAAGGAUAUCGUCCUAGUUUGUUUCGAGAAGGUGCUUUUGUUUUUUCUUUGUGUUGACAUGAGGAUCACCCAUGU [JR_ExcNG1_Sub052] (Eterna round: R96, puzzle: Exclusion NG 1)” the “apparent KD of MS2 coat protein” value (input ligand: FMN 200 uM) was 20.3 nM, the “apparent KD of MS2 coat protein” value [4] was 20.6 nM and the “apparent KD of MS2 coat protein” value (input ligand: none) was 28.7 nM.
In the case of “ACAGUUCUGCAAGGAUAUCGUUCUAGUUUAGUACGAGAAGGUGCUUUAGUUUUUUCUUUGUGUUGACAUGAGGAUCACCCAUGU [JR_ExcNG1_Sub054] (Eterna round: R96, puzzle: Exclusion NG 1)”, the “apparent KD of MS2 coat protein” value [4] is reported as 17.5 nM.
With “ACAUAGGUAGGAUAUCUAAGUUGAUACAUGAGGAUCACCCAUGUGUUACUCAAGAUCUACAGAGAAGGGCCUGAGG [Eternabot (L2) Solution 93] (Eterna round: R97, puzzle: Exclusion 5)” the “apparent KD of MS2 coat protein” value (input ligand: FMN 200 uM) was 19.7 nM and the “apparent KD of MS2 coat protein” value (input ligand: none) was 15.3 nM.
With “ACAUGAGGAUCACCCAUGUAAACAUAAUGGCUCAUGUAGAGUCAGGAUAUGCGUGGCUAACAAUCGCAGAAGGGACAAGACUGG [Deportation 29 - Jieux - Exclusion NG 3] (Eterna round: R96, puzzle: Exclusion NG 3)” the “apparent KD of MS2 coat protein” value (input ligand: FMN 200 uM) was 22.1 nM, the “apparent KD of MS2 coat protein” value [4] was 20.2 nM and the “apparent KD of MS2 coat protein” value (input ligand: none) was 24.5 nM.
For “ACAUGAGGAUCACCCAUGUACAGGGUUUAGUUUCAUCGUUUGAAGGAUAUACACCGUUAGUUGUCGUAGAAGGUCACAGAUUGG [JR_ExcNG3_Sub009] (Eterna round: R96, puzzle: Exclusion NG 3)”, the “apparent KD of MS2 coat protein” value (input ligand: FMN 200 uM) was 153 nM, the “apparent KD of MS2 coat protein” value [4] was 68.2 nM and the “apparent KD of MS2 coat protein” value (input ligand: none) was 155 nM.
“ACAUGAGGAUCACCCAUGUCCGGCUGGUCCGUCUCGGCUGUCGAGGAUAUAGCUCGGUGUCCGCGCUAGAAGGUGGGAGCUGGU [Aenatbe mod 68] (Eterna round: R96, puzzle: Exclusion NG 3)” was tested, and the “apparent KD of MS2 coat protein” value (input ligand: FMN 200 uM) was 150 nM, the “apparent KD of MS2 coat protein” value [4] was 93.3 nM and the “apparent KD of MS2 coat protein” value (input ligand: none) was 135 nM.
“ACAUGAGGAUCACCCAUGUCCGGCUGGUCCGUUUCGGCUGUCGAGGAUAUAGUUCGGUGUUCGCGCUAGAAGGCGGGAGCUGGC [Aenatbe mod 60] (Eterna round: R96, puzzle: Exclusion NG 3)” was tested, and the “apparent KD of MS2 coat protein” value (input ligand: FMN 200 uM) was 206 nM, the “apparent KD of MS2 coat protein” value [4] was 68.7 nM and the “apparent KD of MS2 coat protein” value (input ligand: none) was 114 nM.
With “ACAUGAGGAUCACCCAUGUCCGGCUGGUCUGUUCCGGCUGUCGAGGAUAUAGUUCGGUGUUCGCGCUAGAAGGCGGGAGCUGGA [Aenatbe mod 52] (Eterna round: R96, puzzle: Exclusion NG 3)” the “apparent KD of MS2 coat protein” value (input ligand: FMN 200 uM) was 150 nM, the “apparent KD of MS2 coat protein” value [4] was 104 nM and the “apparent KD of MS2 coat protein” value (input ligand: none) was 123 nM.
For “ACAUGAGGAUCACCCAUGUCCGGCUGGUCUGUUUCGGCUGUCGAGGAUAUAGUUCGGUGUUCGCGCUAGAAGGCGGGAGCUGGC [Aenatbe mod 59] (Eterna round: R96, puzzle: Exclusion NG 3)”, the “apparent KD of MS2 coat protein” value (input ligand: FMN 200 uM) was 111 nM, the “apparent KD of MS2 coat protein” value [4] was 56.5 nM and the “apparent KD of MS2 coat protein” value (input ligand: none) was 82.4 nM.
For “ACAUGAGGAUCACCCAUGUCCGUCUGGUCUGUCUCGGCUGUCGAGGAUAUAGCCCGGUAUCCGCGCUAGAAGGUGGGAGUCGGC [Aenatbe mod 98] (Eterna round: R96, puzzle: Exclusion NG 3)”, the “apparent KD of MS2 coat protein” value (input ligand: FMN 200 uM) was 31.4 nM, the “apparent KD of MS2 coat protein” value [4] was 28.9 nM and the “apparent KD of MS2 coat protein” value (input ligand: none) was 37.3 nM.
With “ACAUGAGGAUCACCCAUGUGAAAACAAUGGCUGACUUAGAGAUAGGAUAUAUGUGCAUAUCAAACAUAGAAGGGUCAUUACUGG [Deportation 89 - Jieux - Exclusion NG 3] (Eterna round: R96, puzzle: Exclusion NG 3)” the “apparent KD of MS2 coat protein” value (input ligand: FMN 200 uM) was 37.9 nM, the “apparent KD of MS2 coat protein” value [4] was 34.5 nM and the “apparent KD of MS2 coat protein” value (input ligand: none) was 39.3 nM.
In the case of “ACAUGAGGAUCACCCAUGUGAAAACAAUGGCUGACUUUGAGAUAGGAUAUUGGUGCAUAUCAAACCAAGAAGGGUCAUUACUGG [Deportation 92 - Jieux - Exclusion NG 3] (Eterna round: R96, puzzle: Exclusion NG 3)”, the “apparent KD of MS2 coat protein” value (input ligand: FMN 200 uM) is reported as 37.5 nM, the “apparent KD of MS2 coat protein” value [4] is reported as 32.8 nM and the “apparent KD of MS2 coat protein” value (input ligand: none) is reported as 48.2 nM.
In the case of “ACAUGAGGAUCACCCAUGUGACCACGAUGGCUGAUGUAGAGCUAGGAUAUGAGUGAAUAUCUAUCUCAGAAGGAGCUUGACUGG [Deportation 49 - Jieux - Exclusion NG 3] (Eterna round: R96, puzzle: Exclusion NG 3)”, the “apparent KD of MS2 coat protein” value (input ligand: FMN 200 uM) is reported as 25.7 nM, the “apparent KD of MS2 coat protein” value [4] is reported as 16.4 nM and the “apparent KD of MS2 coat protein” value (input ligand: none) is reported as 26.2 nM.
In the case of “ACAUGAGGAUCACCCAUGUUAUGUUGGGUACUAAAUUAUUCGUAGGAUAUCGAAGCUAGUUUGUGCGAGAAGGACGCAUUUUUU [JR_ExcNG3_Sub058] (Eterna round: R96, puzzle: Exclusion NG 3)”, the “apparent KD of MS2 coat protein” value (input ligand: FMN 200 uM) is reported as 147 nM, the “apparent KD of MS2 coat protein” value [4] is reported as 176 nM and the “apparent KD of MS2 coat protein” value (input ligand: none) is reported as 201 nM.
With “ACAUGUAAUGUAGGAUAUUUUACACAUGAGGAUCACCCAUGUGACCGGAGGCUUUACUAUGAGUAAAAGAAGGGUAUGUACAUG [Ex NG2 #61] (Eterna round: R96, puzzle: Exclusion NG 2)” the “apparent KD of MS2 coat protein” value (input ligand: FMN 200 uM) was 68.5 nM, the “apparent KD of MS2 coat protein” value [4] was 33.1 nM and the “apparent KD of MS2 coat protein” value (input ligand: none) was 45.8 nM.
For “ACAUGUCAUCGAGGAUAUUGGACACAUGAGGAUCACCCAUGUACCCGGAGGCUUUACUAUGAGUUCGAGAAGGCGAUGUACAUG [Ex NG2 #73] (Eterna round: R96, puzzle: Exclusion NG 2)”, the “apparent KD of MS2 coat protein” value (input ligand: FMN 200 uM) was 83.7 nM, the “apparent KD of MS2 coat protein” value [4] was 42.4 nM and the “apparent KD of MS2 coat protein” value (input ligand: none) was 54.6 nM.

Reference: the supplement of paper PMC9170038
